The results in this text go back to US20180273587A1 (AILERON THERAPEUTICS, published 2018).

Positions of bridges follow the written chain, without caps; N, C: chain ends. Non-standard residues stand in square brackets, D forms with d. R8 = C=CCCCCCC[C@@](C)(N)C(=O)O; S5 = C=CCCC[C@](C)(N)C(=O)O

Common to all, as to assay: Ki table, method not stated
The target of one test is BCL-2 (UniProt P10415 1-217, limits assumed).
A further test concerns the target BCL-XL (UniProt Q07817 1-209).
For a further test, the target named is T1, MCL-1 (UniProt Q07820 172-327, limits assumed).
T1 construct: also called Myeloid cell leukemia 1
T1 sequence (Q07820 172-327 limits assumed): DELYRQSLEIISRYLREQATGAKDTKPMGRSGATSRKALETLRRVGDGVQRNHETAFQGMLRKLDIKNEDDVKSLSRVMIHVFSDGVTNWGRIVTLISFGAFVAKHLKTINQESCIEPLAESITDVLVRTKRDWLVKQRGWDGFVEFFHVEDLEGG

For orientation: Ki means the equilibrium dissociation constant of an inhibitor or competing ligand from its target. Lower therefore signals tighter binding.

Sequence of BCL-XL (Q07817 1-209): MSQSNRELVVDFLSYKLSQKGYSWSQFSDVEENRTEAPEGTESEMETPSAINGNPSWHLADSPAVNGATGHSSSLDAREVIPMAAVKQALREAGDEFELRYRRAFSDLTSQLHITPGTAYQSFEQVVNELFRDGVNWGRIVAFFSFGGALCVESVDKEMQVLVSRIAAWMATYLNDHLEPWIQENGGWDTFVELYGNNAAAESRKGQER
Sequence of BCL-2 (P10415 1-217 limits assumed): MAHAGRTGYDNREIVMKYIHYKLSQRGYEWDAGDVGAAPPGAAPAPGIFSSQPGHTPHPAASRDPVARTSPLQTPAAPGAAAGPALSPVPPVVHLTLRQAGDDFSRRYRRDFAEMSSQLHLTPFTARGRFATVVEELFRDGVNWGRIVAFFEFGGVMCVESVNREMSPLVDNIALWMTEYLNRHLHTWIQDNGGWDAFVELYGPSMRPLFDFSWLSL

B1: SEQ ID NO: 1659 (peptide)
peptide: Ac-IWIAQALQ[R8]IGDAFN[S5]YYA-NH2
modifications: staple 9-16
SMILES: CC[C@H](C)[C@H](NC(C)=O)C(=O)N[C@@H](Cc1c[nH]c2ccccc12)C(=O)N[C@H](C(=O)N[C@@H](C)C(=O)N[C@@H](CCC(N)=O)C(=O)N[C@@H](C)C(=O)N[C@@H](CC(C)C)C(=O)N[C@@H](CCC(N)=O)C(=O)N[C@]1(C)CCCCCCC=CCCC[C@@](C)(C(=O)N[C@@H](Cc2ccc(O)cc2)C(=O)N[C@@H](Cc2ccc(O)cc2)C(=O)N[C@@H](C)C(N)=O)NC(=O)[C@H](CC(N)=O)NC(=O)[C@H](Cc2ccccc2)NC(=O)[C@H](C)NC(=O)[C@H](CC(=O)O)NC(=O)CNC(=O)[C@H]([C@@H](C)CC)NC1=O)[C@@H](C)CC
With B1, the Ki worked out at 365 nM with BCL-2, 325 nM with BCL-XL and 76.2 nM with MCL-1.

B2: SEQ ID NO: 1670 (peptide)
peptide: Ac-IWIAQALR[R8]FGDQFN[S5]YYA-NH2
modifications: staple 9-16
SMILES: CC[C@H](C)[C@H](NC(C)=O)C(=O)N[C@@H](Cc1c[nH]c2ccccc12)C(=O)N[C@H](C(=O)N[C@@H](C)C(=O)N[C@@H](CCC(N)=O)C(=O)N[C@@H](C)C(=O)N[C@@H](CC(C)C)C(=O)N[C@@H](CCCNC(=N)N)C(=O)N[C@]1(C)CCCCCCC=CCCC[C@@](C)(C(=O)N[C@@H](Cc2ccc(O)cc2)C(=O)N[C@@H](Cc2ccc(O)cc2)C(=O)N[C@@H](C)C(N)=O)NC(=O)[C@H](CC(N)=O)NC(=O)[C@H](Cc2ccccc2)NC(=O)[C@H](CCC(N)=O)NC(=O)[C@H](CC(=O)O)NC(=O)CNC(=O)[C@H](Cc2ccccc2)NC1=O)[C@@H](C)CC
For B2, the Ki stood at 66.1 nM with BCL-2, 25.6 nM with BCL-XL and 74.1 nM in the test with MCL-1.

B3: SEQ ID NO: 1668 (peptide)
peptide: Ac-IWIAQALR[R8]AGDQFN[S5]YYA-NH2
modifications: staple 9-16
SMILES: CC[C@H](C)[C@H](NC(C)=O)C(=O)N[C@@H](Cc1c[nH]c2ccccc12)C(=O)N[C@H](C(=O)N[C@@H](C)C(=O)N[C@@H](CCC(N)=O)C(=O)N[C@@H](C)C(=O)N[C@@H](CC(C)C)C(=O)N[C@@H](CCCNC(=N)N)C(=O)N[C@]1(C)CCCCCCC=CCCC[C@@](C)(C(=O)N[C@@H](Cc2ccc(O)cc2)C(=O)N[C@@H](Cc2ccc(O)cc2)C(=O)N[C@@H](C)C(N)=O)NC(=O)[C@H](CC(N)=O)NC(=O)[C@H](Cc2ccccc2)NC(=O)[C@H](CCC(N)=O)NC(=O)[C@H](CC(=O)O)NC(=O)CNC(=O)[C@H](C)NC1=O)[C@@H](C)CC
As for B3, the figures for the Ki with BCL-2, with BCL-XL and in the test with MCL-1 were 4.8 nM, 1.9 nM and 122 nM, respectively.

B4: SEQ ID NO: 1665 (peptide)
peptide: Ac-IWIAQALR[R8]IADAFN[S5]YYA-NH2
modifications: staple 9-16
SMILES: CC[C@H](C)[C@H](NC(C)=O)C(=O)N[C@@H](Cc1c[nH]c2ccccc12)C(=O)N[C@H](C(=O)N[C@@H](C)C(=O)N[C@@H](CCC(N)=O)C(=O)N[C@@H](C)C(=O)N[C@@H](CC(C)C)C(=O)N[C@@H](CCCNC(=N)N)C(=O)N[C@]1(C)CCCCCCC=CCCC[C@@](C)(C(=O)N[C@@H](Cc2ccc(O)cc2)C(=O)N[C@@H](Cc2ccc(O)cc2)C(=O)N[C@@H](C)C(N)=O)NC(=O)[C@H](CC(N)=O)NC(=O)[C@H](Cc2ccccc2)NC(=O)[C@H](C)NC(=O)[C@H](CC(=O)O)NC(=O)[C@H](C)NC(=O)[C@H]([C@@H](C)CC)NC1=O)[C@@H](C)CC
Regarding B4, the Ki with BCL-2 was 84 nM; with BCL-XL it was 7.7 nM; in the test with MCL-1 it was 96.3 nM.

B5: SEQ ID NO: 1661 (peptide)
peptide: Ac-IWIAQALR[R8]IGDAAN[S5]YYA-NH2
modifications: staple 9-16
SMILES: CC[C@H](C)[C@H](NC(C)=O)C(=O)N[C@@H](Cc1c[nH]c2ccccc12)C(=O)N[C@H](C(=O)N[C@@H](C)C(=O)N[C@@H](CCC(N)=O)C(=O)N[C@@H](C)C(=O)N[C@@H](CC(C)C)C(=O)N[C@@H](CCCNC(=N)N)C(=O)N[C@]1(C)CCCCCCC=CCCC[C@@](C)(C(=O)N[C@@H](Cc2ccc(O)cc2)C(=O)N[C@@H](Cc2ccc(O)cc2)C(=O)N[C@@H](C)C(N)=O)NC(=O)[C@H](CC(N)=O)NC(=O)[C@H](C)NC(=O)[C@H](C)NC(=O)[C@H](CC(=O)O)NC(=O)CNC(=O)[C@H]([C@@H](C)CC)NC1=O)[C@@H](C)CC
On to B5, for which the Ki with BCL-2 was determined as 140 nM; with BCL-XL it was 402 nM; with MCL-1 it was 7.5 nM.

B6: SEQ ID NO: 1660 (peptide)
peptide: Ac-IWIAQALQ[R8]IGDQFN[S5]YYA-NH2
modifications: staple 9-16
SMILES: CC[C@H](C)[C@H](NC(C)=O)C(=O)N[C@@H](Cc1c[nH]c2ccccc12)C(=O)N[C@H](C(=O)N[C@@H](C)C(=O)N[C@@H](CCC(N)=O)C(=O)N[C@@H](C)C(=O)N[C@@H](CC(C)C)C(=O)N[C@@H](CCC(N)=O)C(=O)N[C@]1(C)CCCCCCC=CCCC[C@@](C)(C(=O)N[C@@H](Cc2ccc(O)cc2)C(=O)N[C@@H](Cc2ccc(O)cc2)C(=O)N[C@@H](C)C(N)=O)NC(=O)[C@H](CC(N)=O)NC(=O)[C@H](Cc2ccccc2)NC(=O)[C@H](CCC(N)=O)NC(=O)[C@H](CC(=O)O)NC(=O)CNC(=O)[C@H]([C@@H](C)CC)NC1=O)[C@@H](C)CC
Consider B6, for which the Ki with BCL-2 is 27.5 nM; with BCL-XL it was 6.3 nM; with MCL-1, 14.8 nM.

B7: SEQ ID NO: 1664 (peptide)
peptide: Ac-IWIAQAAR[R8]IGDAAN[S5]YYA-NH2
modifications: staple 9-16
SMILES: CC[C@H](C)[C@H](NC(C)=O)C(=O)N[C@@H](Cc1c[nH]c2ccccc12)C(=O)N[C@H](C(=O)N[C@@H](C)C(=O)N[C@@H](CCC(N)=O)C(=O)N[C@@H](C)C(=O)N[C@@H](C)C(=O)N[C@@H](CCCNC(=N)N)C(=O)N[C@]1(C)CCCCCCC=CCCC[C@@](C)(C(=O)N[C@@H](Cc2ccc(O)cc2)C(=O)N[C@@H](Cc2ccc(O)cc2)C(=O)N[C@@H](C)C(N)=O)NC(=O)[C@H](CC(N)=O)NC(=O)[C@H](C)NC(=O)[C@H](C)NC(=O)[C@H](CC(=O)O)NC(=O)CNC(=O)[C@H]([C@@H](C)CC)NC1=O)[C@@H](C)CC
For B7, the Ki in the test with BCL-2 worked out at 502 nM; with BCL-XL it was 154 nM; in the test with MCL-1, 177 nM.

B8: SEQ ID NO: 1662 (peptide)
peptide: Ac-IWIAQALR[R8]IGDAIN[S5]YYA-NH2
modifications: staple 9-16
SMILES: CC[C@H](C)[C@H](NC(C)=O)C(=O)N[C@@H](Cc1c[nH]c2ccccc12)C(=O)N[C@H](C(=O)N[C@@H](C)C(=O)N[C@@H](CCC(N)=O)C(=O)N[C@@H](C)C(=O)N[C@@H](CC(C)C)C(=O)N[C@@H](CCCNC(=N)N)C(=O)N[C@]1(C)CCCCCCC=CCCC[C@@](C)(C(=O)N[C@@H](Cc2ccc(O)cc2)C(=O)N[C@@H](Cc2ccc(O)cc2)C(=O)N[C@@H](C)C(N)=O)NC(=O)[C@H](CC(N)=O)NC(=O)[C@H]([C@@H](C)CC)NC(=O)[C@H](C)NC(=O)[C@H](CC(=O)O)NC(=O)CNC(=O)[C@H]([C@@H](C)CC)NC1=O)[C@@H](C)CC
With B8, the Ki was determined as 113 nM in the test with BCL-2, 14.1 nM with BCL-XL and 3.4 nM in the test with MCL-1.

B9: SEQ ID NO: 1667 (peptide)
peptide: Ac-IWIAQALR[R8]AGDAFN[S5]YYA-NH2
modifications: staple 9-16
SMILES: CC[C@H](C)[C@H](NC(C)=O)C(=O)N[C@@H](Cc1c[nH]c2ccccc12)C(=O)N[C@H](C(=O)N[C@@H](C)C(=O)N[C@@H](CCC(N)=O)C(=O)N[C@@H](C)C(=O)N[C@@H](CC(C)C)C(=O)N[C@@H](CCCNC(=N)N)C(=O)N[C@]1(C)CCCCCCC=CCCC[C@@](C)(C(=O)N[C@@H](Cc2ccc(O)cc2)C(=O)N[C@@H](Cc2ccc(O)cc2)C(=O)N[C@@H](C)C(N)=O)NC(=O)[C@H](CC(N)=O)NC(=O)[C@H](Cc2ccccc2)NC(=O)[C@H](C)NC(=O)[C@H](CC(=O)O)NC(=O)CNC(=O)[C@H](C)NC1=O)[C@@H](C)CC
As to B9, the Ki was determined as 59.6 nM with BCL-2, 18.1 nM with BCL-XL and 183 nM with MCL-1.

B10: SEQ ID NO: 1666 (peptide)
peptide: Ac-IWIAQALR[R8]IADQFN[S5]YYA-NH2
modifications: staple 9-16
SMILES: CC[C@H](C)[C@H](NC(C)=O)C(=O)N[C@@H](Cc1c[nH]c2ccccc12)C(=O)N[C@H](C(=O)N[C@@H](C)C(=O)N[C@@H](CCC(N)=O)C(=O)N[C@@H](C)C(=O)N[C@@H](CC(C)C)C(=O)N[C@@H](CCCNC(=N)N)C(=O)N[C@]1(C)CCCCCCC=CCCC[C@@](C)(C(=O)N[C@@H](Cc2ccc(O)cc2)C(=O)N[C@@H](Cc2ccc(O)cc2)C(=O)N[C@@H](C)C(N)=O)NC(=O)[C@H](CC(N)=O)NC(=O)[C@H](Cc2ccccc2)NC(=O)[C@H](CCC(N)=O)NC(=O)[C@H](CC(=O)O)NC(=O)[C@H](C)NC(=O)[C@H]([C@@H](C)CC)NC1=O)[C@@H](C)CC
Take B10: the values for the Ki with BCL-2, in the test with BCL-XL and in the test with MCL-1 were 25.6 nM, 7.7 nM and 116 nM, respectively.

B11: SEQ ID NO: 1669 (peptide)
peptide: Ac-IWIAQALR[R8]FGDAFN[S5]YYA-NH2
modifications: staple 9-16
SMILES: CC[C@H](C)[C@H](NC(C)=O)C(=O)N[C@@H](Cc1c[nH]c2ccccc12)C(=O)N[C@H](C(=O)N[C@@H](C)C(=O)N[C@@H](CCC(N)=O)C(=O)N[C@@H](C)C(=O)N[C@@H](CC(C)C)C(=O)N[C@@H](CCCNC(=N)N)C(=O)N[C@]1(C)CCCCCCC=CCCC[C@@](C)(C(=O)N[C@@H](Cc2ccc(O)cc2)C(=O)N[C@@H](Cc2ccc(O)cc2)C(=O)N[C@@H](C)C(N)=O)NC(=O)[C@H](CC(N)=O)NC(=O)[C@H](Cc2ccccc2)NC(=O)[C@H](C)NC(=O)[C@H](CC(=O)O)NC(=O)CNC(=O)[C@H](Cc2ccccc2)NC1=O)[C@@H](C)CC
In the case of B11, the Ki with BCL-2 was 68.5 nM; with BCL-XL, 15.8 nM; with MCL-1, 27.8 nM.
